Experimental data: patent US20140274782A1 (Stanford University, published 2014)

Experiments:
MGC4473, G9a-methylated [1] = target: MGC4473, G9a-methylated (human); experiment: ProtoArray methylated with G9a SET domain
[2] = target: T1, cDNA clone IMAGE:4623222 product, G9a-methylated (human); experiment: ProtoArray methylated with G9a SET domain
[3] = target: LOC145788, G9a-methylated (human); experiment: ProtoArray methylated with G9a SET domain
[4] = target: LOC400500, G9a-methylated (human); experiment: ProtoArray methylated with G9a SET domain
MGC4473, G9a-methylated [5] = target: MGC4473, G9a-methylated (human); experiment: ProtoArray, G9a array SNR minus GST array SNR
[6] = target: T1, cDNA clone IMAGE:4623222 product, …; experiment: ProtoArray, G9a array SNR minus GST array SNR
[7] = target: LOC145788, G9a-methylated (human); experiment: ProtoArray, G9a array SNR minus GST array SNR
[8] = target: LOC400500, G9a-methylated (human); experiment: ProtoArray, G9a array SNR minus GST array SNR
[9] = target: T2, GHRL-ghrelin/obestatin preprohormone (GHRL) (human, UniProt Q9UBU3 1-117, limits assumed); experiment: ProtoArray, GST-treated control array
T2 sequence (looked up): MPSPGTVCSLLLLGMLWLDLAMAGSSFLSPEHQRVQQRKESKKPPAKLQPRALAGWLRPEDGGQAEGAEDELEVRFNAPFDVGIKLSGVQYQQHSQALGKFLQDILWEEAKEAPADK

[10] = target: T3, GAL-galanin prepropeptide (GAL) (human, UniProt P22466 1-123, limits assumed); experiment: ProtoArray, GST-treated control array
T3 sequence (looked up): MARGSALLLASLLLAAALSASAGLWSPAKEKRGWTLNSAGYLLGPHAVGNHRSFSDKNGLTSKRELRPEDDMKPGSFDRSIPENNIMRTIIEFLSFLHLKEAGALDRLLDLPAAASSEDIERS

[11] = target: T4, GPR108-G protein-coupled receptor 108 (GPR108) (human, UniProt Q9NPR9 33-543, limits assumed); experiment: ProtoArray, GST-treated control array;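 further: human protein microarray (about 9500 recombinant proteins) incubated overnight with GST alone plus SAM cofactor as the negative control for G9a SET domain methylation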
T4 sequence (looked up): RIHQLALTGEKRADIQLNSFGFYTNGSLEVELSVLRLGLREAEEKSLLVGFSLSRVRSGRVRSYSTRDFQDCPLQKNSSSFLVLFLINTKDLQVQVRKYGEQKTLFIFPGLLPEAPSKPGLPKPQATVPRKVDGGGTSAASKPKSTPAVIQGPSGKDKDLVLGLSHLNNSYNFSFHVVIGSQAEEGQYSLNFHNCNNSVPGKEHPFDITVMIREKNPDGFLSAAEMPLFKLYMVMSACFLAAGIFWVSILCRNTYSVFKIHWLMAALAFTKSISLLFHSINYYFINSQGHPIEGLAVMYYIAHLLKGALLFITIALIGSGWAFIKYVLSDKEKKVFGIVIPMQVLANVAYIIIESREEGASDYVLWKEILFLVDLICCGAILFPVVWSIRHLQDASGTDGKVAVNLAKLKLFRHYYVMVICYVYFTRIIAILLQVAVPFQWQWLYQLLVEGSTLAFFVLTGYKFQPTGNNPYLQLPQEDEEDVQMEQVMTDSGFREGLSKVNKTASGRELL

[12] = target: T5, LYRM7-Lyrm7 homolog (mouse) (LYRM7) (human, UniProt Q5U5X0 1-104); experiment: ProtoArray, GST-treated control array;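 further: human protein microarray (about 9500 recombinant proteins) incubated overnight with GST alone plus SAM cofactor as the negative control for G9a SET domain methylation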
T5 sequence (looked up): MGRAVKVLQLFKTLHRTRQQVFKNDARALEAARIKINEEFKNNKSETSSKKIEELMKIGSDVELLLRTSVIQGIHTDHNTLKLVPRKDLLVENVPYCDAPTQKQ

[13] = target: T6, BHMT-betaine-homocysteine methyltransferase (BHMT) (human, UniProt Q93088 1-406); experiment: ProtoArray, GST-treated control array;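 further: human protein microarray (about 9500 recombinant proteins) incubated overnight with GST alone plus SAM cofactor as the negative control for G9a SET domain methylation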
T6 sequence (looked up): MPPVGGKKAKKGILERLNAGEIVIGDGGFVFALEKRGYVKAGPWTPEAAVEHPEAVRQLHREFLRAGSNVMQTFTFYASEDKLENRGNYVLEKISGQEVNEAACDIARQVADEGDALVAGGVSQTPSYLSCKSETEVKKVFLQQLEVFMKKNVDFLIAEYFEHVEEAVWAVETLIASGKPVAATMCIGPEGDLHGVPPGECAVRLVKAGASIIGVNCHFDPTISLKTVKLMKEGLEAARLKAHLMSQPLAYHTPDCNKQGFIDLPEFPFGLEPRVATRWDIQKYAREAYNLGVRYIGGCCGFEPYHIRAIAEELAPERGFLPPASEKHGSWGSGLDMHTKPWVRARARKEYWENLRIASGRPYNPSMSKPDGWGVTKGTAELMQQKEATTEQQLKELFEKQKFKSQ

[14] = target: T7, KIFC1-kinesin family member C1 (KIFC1) (human, UniProt Q9BW19 1-673); experiment: ProtoArray, GST-treated control array;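 further: human protein microarray (about 9500 recombinant proteins) incubated overnight with GST alone plus SAM cofactor as the negative control for G9a SET domain methylation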
T7 sequence (looked up): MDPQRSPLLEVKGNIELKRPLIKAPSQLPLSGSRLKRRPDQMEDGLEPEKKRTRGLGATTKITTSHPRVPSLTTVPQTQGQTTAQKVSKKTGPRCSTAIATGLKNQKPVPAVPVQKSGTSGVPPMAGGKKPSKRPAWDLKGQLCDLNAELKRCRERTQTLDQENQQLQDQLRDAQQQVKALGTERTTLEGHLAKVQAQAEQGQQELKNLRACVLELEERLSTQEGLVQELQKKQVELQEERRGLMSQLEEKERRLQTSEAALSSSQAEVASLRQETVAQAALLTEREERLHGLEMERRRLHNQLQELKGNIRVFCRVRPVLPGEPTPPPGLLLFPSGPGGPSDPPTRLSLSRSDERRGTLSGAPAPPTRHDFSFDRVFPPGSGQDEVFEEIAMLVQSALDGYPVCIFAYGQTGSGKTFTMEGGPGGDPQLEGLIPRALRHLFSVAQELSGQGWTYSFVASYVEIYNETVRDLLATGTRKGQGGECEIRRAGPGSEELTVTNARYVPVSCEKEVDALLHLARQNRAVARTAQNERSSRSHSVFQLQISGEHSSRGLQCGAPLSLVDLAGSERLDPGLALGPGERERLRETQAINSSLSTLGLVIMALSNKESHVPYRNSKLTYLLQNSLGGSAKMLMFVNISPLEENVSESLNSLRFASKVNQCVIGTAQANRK

[15] = target: PSMA8-proteasome (prosome, macropain) subunit, alpha type, 8 (PSMA8) (human, UniProt Q8TAA3 1-256, limits assumed); experiment: ProtoArray, GST-treated control array
Chain of PSMA8-proteasome (prosome, macropain) subunit, alpha type, 8 (PSMA8) (Q8TAA3 whole entry): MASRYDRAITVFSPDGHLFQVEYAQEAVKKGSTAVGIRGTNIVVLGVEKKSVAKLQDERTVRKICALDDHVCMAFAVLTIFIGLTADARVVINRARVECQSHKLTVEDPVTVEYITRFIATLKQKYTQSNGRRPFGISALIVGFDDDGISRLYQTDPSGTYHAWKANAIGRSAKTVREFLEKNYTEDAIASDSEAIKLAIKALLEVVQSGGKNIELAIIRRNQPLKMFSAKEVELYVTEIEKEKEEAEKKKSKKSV

- G9a Average SNR (MGC4473, G9a-methylated [1]): 21.7
- G9a Average SNR [2]: 18.8
- G9a Average SNR [3]: 14.1
- G9a Average SNR [4]: 29
- G9a-GST (MGC4473, G9a-methylated [5]): 21.7
- G9a-GST [6]: 17.8
- G9a-GST [7]: 13.8
- G9a-GST [8]: 29.1
- GST Average SNR [11]: -0.788
- GST Average SNR [12]: 0.278
- GST Average SNR [13]: 1.44
- GST Average SNR [14]: 0.745
- GST Average SNR [15]: -0.846
B1: 3× Flag-3×MBT (designed binder)
chain: EEWSSSQPATGEKKECWSWESYLEEQKAITAPVSLFQDSQAVTHNKNGFKLGMKLEGIDPQHPSMYFILTVAEVCGYRLRLHFDGYSECHDFWVNANSPDIHPAGWFEKTGHKLQPPKGYKEEEFSWSQYLRSTRAQAAPKHLFVSQSHSPPPLGFQVGMKLEAVDRMNPSLVCVASVTDVVDSRFLVHFDNWDDTYDYWCDPSSPYIHPVGWCQKQGKPLTPPQDYPDPDNFCWEKYLEETGASAVPTWAFKVRPPHSFLVNMKLEAVDRRNPALIRVASVEDVEDHRIKIHFDGWSHGYDFWIDADHPDIHPAGWCSKTGHPLQPPLGPREPSSASPGG
notes: also called Flag-tagged 3×MBT; 3xFlag-3xMBT; not shown: made by PreScission cleavage of GST-3× Flag-3×MBT
- binding result [9]: no binding (tested: GST array SNR <= 1.5)
- binding result [10]: no binding (tested: GST array SNR <= 1.5)
